The target of experiment [1] is T1, full-length mouse C1s (produced in house) (mouse, UniProt Q8CG14 16-688).
T1 construct: Called full-length; also called MoC1s; moC1s
T1 sequence: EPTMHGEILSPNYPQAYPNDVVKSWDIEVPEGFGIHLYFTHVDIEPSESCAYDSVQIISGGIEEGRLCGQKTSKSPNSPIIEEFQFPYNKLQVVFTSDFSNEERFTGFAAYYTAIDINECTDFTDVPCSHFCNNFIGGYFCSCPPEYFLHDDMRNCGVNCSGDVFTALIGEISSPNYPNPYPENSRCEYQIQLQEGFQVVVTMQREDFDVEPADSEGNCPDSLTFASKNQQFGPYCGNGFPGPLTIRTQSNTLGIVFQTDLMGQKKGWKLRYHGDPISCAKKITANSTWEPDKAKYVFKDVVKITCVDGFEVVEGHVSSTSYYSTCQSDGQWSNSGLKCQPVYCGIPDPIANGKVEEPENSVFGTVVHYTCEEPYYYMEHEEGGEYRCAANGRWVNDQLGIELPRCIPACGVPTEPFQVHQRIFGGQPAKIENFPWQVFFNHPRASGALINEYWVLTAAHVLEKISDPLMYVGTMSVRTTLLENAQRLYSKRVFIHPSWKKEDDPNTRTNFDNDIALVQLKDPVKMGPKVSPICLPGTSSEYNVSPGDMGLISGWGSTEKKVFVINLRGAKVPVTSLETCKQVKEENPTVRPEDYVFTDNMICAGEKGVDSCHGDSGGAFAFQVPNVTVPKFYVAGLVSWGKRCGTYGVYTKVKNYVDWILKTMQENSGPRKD
Kind of experiment: ELISA, plate coated with 200 ng/well MoC1s, OD450nm. On the procedure:
The next morning, plates were blocked with SuperBlock T20 blocking buffer (Thermo Scientific 37536) for 1 h with gentle shaking. Then, various concentrations of anti-C1s antibodies diluted in SuperBlock T20 blocking buffer were added to the plates and incubated for 1 h with gentle shaking. Mouse IgG (Sigma-Aldrich I5381) and Human IgG1 (BioXCell BP0297) were used as negative controls. The plates were washed before incubating with HRP conjugated secondary antibodies diluted in SuperBlock T20 blocking buffer (goat anti-mouse IgG (H+L) cross-adsorbed secondary antibody HRP (Invitrogen G-21040) or goat anti-human IgG antibody, HRP conjugate (Millipore AP309P)) for 1 h with gentle shaking. At last, the plates were washed and color developed with ELISA liquid substrate (Sigma-Aldrich), followed by stopping the reaction with addition of the same volume of […] 1M H₂SO₄. Bound antibody was measured by absorbance at OD₄₅₀ₙₘ.
For orientation: An ELISA detects its analyte on a solid surface through an enzyme-linked reagent.

The target of experiment [2] is T2, human C1s mutant M2 (M277I & K331Q) (human, UniProt P09871 16-688).
T2 construct: The entry is the mutant itself
T2 sequence: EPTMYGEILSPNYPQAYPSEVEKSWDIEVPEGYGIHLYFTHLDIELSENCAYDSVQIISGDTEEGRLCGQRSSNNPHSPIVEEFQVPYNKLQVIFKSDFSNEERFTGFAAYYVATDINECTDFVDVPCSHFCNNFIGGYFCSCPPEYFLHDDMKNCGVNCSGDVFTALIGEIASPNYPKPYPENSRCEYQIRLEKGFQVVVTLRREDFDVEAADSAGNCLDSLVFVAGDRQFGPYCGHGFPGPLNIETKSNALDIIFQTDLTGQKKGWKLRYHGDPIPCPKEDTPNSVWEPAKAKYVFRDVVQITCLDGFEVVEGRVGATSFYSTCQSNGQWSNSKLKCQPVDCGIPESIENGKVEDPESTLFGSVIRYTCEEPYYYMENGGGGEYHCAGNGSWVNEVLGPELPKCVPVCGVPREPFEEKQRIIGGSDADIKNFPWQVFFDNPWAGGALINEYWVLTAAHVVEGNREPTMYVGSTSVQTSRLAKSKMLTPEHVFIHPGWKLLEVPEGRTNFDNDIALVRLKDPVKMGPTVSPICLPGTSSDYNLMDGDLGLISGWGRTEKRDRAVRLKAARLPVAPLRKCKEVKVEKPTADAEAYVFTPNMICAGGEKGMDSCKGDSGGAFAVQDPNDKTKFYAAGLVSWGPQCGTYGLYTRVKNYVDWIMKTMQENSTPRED
Kind of experiment: ELISA, plate coated with human C1s mutant M2: M277I, K331Q, OD450nm. On the procedure:
ELISA was carried out by first coating 96-well plates with 200 ng/well of full-length or truncated C1s proteins overnight. The next morning, plates were blocked with SuperBlock T20 blocking buffer (Thermo Scientific 37536) for 1 h with gentle shaking. Then, various concentrations of anti-C1s antibodies diluted in SuperBlock T20 blocking buffer were added to the plates and incubated for 1 h with gentle shaking. Mouse IgG (Sigma-Aldrich 15381) and human IgG1 (BioXCell BP0297) were used as negative controls. The plates were washed before incubating with HRP conjugated secondary antibodies diluted in SuperBlock T20 blocking buffer (goat anti-mouse IgG (H+L) cross-adsorbed secondary antibody HRP (Invitrogen G-21040) or goat anti-human IgG antibody, HRP conjugate (Millipore AP309P)) for 1 h with gentle shaking. At last, the plates were washed and color developed with ELISA liquid HRP substrate (Sigma-Aldrich), followed by stopping the reaction with addition of 1M H₂SO₄ in the same volume as the ELISA liquid substrate. Bound antibody was measured by absorbance at OD₄₅₀ₙₘ.
Binding of anti-C1s antibodies to mutants M1-M20 of human C1s was measured by ELISA as described in Example 4, and results are shown in FIGS. 6B-6U. All anti-C1s humanized variants including hz2-7(H1L2), hz2-8(H1L2 G80A) and hz2-8(H1L2 G80A/T82A) maintained strong binding properties to the majority (16 out of 20) of C1s mutants including M1 (FIG. 6B), M2 (FIG. 6C), M3 (FIG. 6D). M4 (FIG. 6E), M7 (FIG. 6H), M8 (FIG. 6I), M10 (FIG. 6K), M11 (FIG. 6L), M12 (FIG. 6M), M13 (FIG. 6N), M15 (FIG. 6P), M16 (FIG. 6Q), M17 (FIG. 6R), M18 (FIG. 6S), M19 (FIG. 6T) and M20 (FIG. 6U).

Numbering of substitutions follows the chain as printed. In names and notes the source's numbering stands.

B1: Anti-C1s antibody hz2-7(H1L2) (antibody, V domains shown)
VH: EVQLLESGGGLVQPGGSLRLSCAASGFTFSNYFMNWVRQAPGKGLEWVSEIRLKFTNYATHYADSVKGRFTISRDDSKSTLYLQMNSLRAEDTAVYYCTRDYGSRNGYFDYWGQGTLVTVSS
VL: DIVMTQTPLSLPVTPGEPASISCRSSKSLLHSNGNTFLYWFLQKPGQSPQLLIYRMSNLASGVPDRFSGSGSGTDFTLKISRVEAEDVGVYYCMQHLEYPYTFGGGTKLEIKR
notes: Humanized, human IgG1 / kappa; also called hz2-7(1L2)
As to B1, the binding result in experiment [1] is listed as “no binding (tested: 1000 ng/ml (Log 3))”. In addition, the midpoint of the response in experiment [2], the EC50, lay at 9 ng/mL.

B2: Anti-C1s antibody hz2-8 (H1L2 G80A) (antibody, V domains shown)
VH: QVQLVQSGAEVKKPGASVKVSCKASGFNIKEYYMHWVRQAPEQGLEWMGWIDPENADTIYAQKFQGRVTITADTSTNTAYMELSSLRSEDTAVYYCARSRLFFAYWGQGTLVTVSS
VL: DIQMTQSPKSLSASVGDRVTITCRASQDVRTALDWYQQKPGQSPKLLIYSASYRYSGVPSRFSGSGSGTDFTLTISSLQPEDFATYYCQQQYTTPYTFGQGTKLEIKR
notes: Humanized variant with G80A in HC CDR2 (already in the entry), human IgG1 / kappa
B2: the EC50 (in general, the midpoint of the concentration-response curve) in experiment [2] came to 7 ng/mL.

B3: Anti-C1s antibody hz2-8 (H1L2 G80A/T82A) (antibody, V domains shown)
VH: B2 VH with T58A
VL: B2 VL
notes: Humanized variant with G80A and T82A in HC CDR2 (already in the entry), human IgG1 / kappa
For the molecule B3, in experiment [1], the binding result was “no binding (tested: 1000 ng/ml (Log 3))”. In experiment [2], this molecule yielded an EC50 of 6 ng/mL.

B4: Anti-C1s antibody 2-7 (antibody, human IgG1, kappa, V domains shown)
VH: EVKLEESGGGLVPPGGSMKLSCVASGFTFSNYFMNWVRQSPEKGLEWVAEIRLKFTNYATHYAESVEGRFTISRDDSKSSVYLQMNNLRAEDTGIYYCTRDYGSRNGYFDYWGQGTTLTVSS
VL: DIVMTQAAPSVPVTPGESVSISCRSSKSLLHSNGNTFLYWFLQRPGQSPQLLIYRMSNLASGVPDRFSGSGSGTAFTLRVSRVEAEDVGIYYCMQHLEYPYTFGGGTKLEIKT
notes: the HC/LC entries may hold it too; also called clone 2-7
As for B4, in experiment [1], the binding result is reported as “no binding (tested: 1000 ng/ml (Log 3))”.

B5: Anti-C1s antibody 2-8 (antibody, V domains shown)
VH: EVQLQQSGAELVRPGALVKLSCKASGFNIKEYYMHWVKQRPEQGLEWIGWIDPENGDTIYDPKFQGKASITADTSSNTAYLQLSSLTSEDTAVYYCARSRLFFAYWGQGTLVTVSA
VL: DIVMTQSHKFMSTSVGDRVSFTCKASQDVRTAVDWYQQKPGQSPKLLIYSASYRYTGVPDRFTGTGSGTDFTFTISSVQAEDLAVYFCQQQYTTPYTFGGGTKLEIKT
notes: the HC/LC entries may hold it too; also called clone 2-8
In the case of B5, the binding result in experiment [1] is reported as “no binding (tested: 1000 ng/ml (Log 3))”.

The values above are taken from US20230051715A1 (MABWELL THERAPEUTICS, published 2023).
